Laboratory results published in publication PMC11365436.

What was measured:
[1] = target: strep-CsoS1A (hexameric shell protein) (Halothiobacillus neapolitanus) (UniProt P45689); experiment: native gel or EMSA; native 1% agarose protein gel (Tris-acetate-EDTA); proteins mixed in 50 mM Hepes, 150 mM NaCl, 30 min at room temperature; 2.5 μg CsoS1A or BSA, 8.4 μg CsoS2 or 3.5 μg MR variant (0.09 nmol); run 70 min at 60 V in 25 mM Tris, 200 mM glycine, pH 7.5; stained, quantified in FIJI
[2] = target: strep-CsoS1A (hexameric shell protein) (Halothiobacillus neapolitanus) (UniProt P45689)

Sequence of UniProt P45689 (P45689 whole entry): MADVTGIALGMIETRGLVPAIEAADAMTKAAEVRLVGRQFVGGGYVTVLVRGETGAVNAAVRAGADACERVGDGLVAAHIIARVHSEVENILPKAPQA

Row | percent of shell bound and shifted from its control position [1] [%] | turbidity with 9 μM CsoS1A, compared to wtMR (fold against wtMR) [2] | percent less mobility shift of shell than with full-length CsoS2 [1] [%] | Substance
1 | > 90 | 5 |  | 6xHis-CsoS2B (full-length CsoS2, long form) (from UniProt O85041-1 1-869) (natural protein)
2 |  |  | 25 | 6xHis-wtMR-strep (WT middle region of CsoS2, repeats 1 to 6) (domain or fragment)
